± gives the uncertainty stated by the source.
Assay: self-splicing fitness, log relative to wild type (ln ratio); higher = more splicing; Tetrahymena group I intron in knt gene, E. coli kanamycin selection, DiMSum; sequences stand for … in CUCUCU…GGAGGGAAAAGUUAUCAGGCAUGCACCUGGUAGCUAGUCUUUAAACCAAUAGAUUGCAUCGGUUUAAAAGGCAAGACCGUCAAAUUGCGGGAAAGGGGUCAACAGCCGUUCAGUACCAAGUCUCAGGGGAAACUUUGAGAUGGCCUUGCAAAGGGUAUGGUAAUAAGCUGACGGACAUGGUCCUAACCACGCAGCCAAGUCCUAAGUCAACAGAUCUUCUGUUGAUAUGGAUGCAGUUCACAGACUAAAUGUCGGUCGGGGAAGAUGUAUUCUUCUCAUAAGAUAUAGUCGGACCUCUCCUUAAUGGGAGCUAGCGGAUGAAGUGAUGCAACACUGGAGCCGCUGGGAACUAAUUUGUAUGCGAAAGUAUAUUGAUUAGUUUUGGAGUACUCGUGGUCG
Outline: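 Pooled colonies went to amplicon sequencing on an Illumina HiSeq 2500 after six replicate transformations. The plates were LB agar with 100 μg/mL carbenicillin, 50 μM IPTG and 0.2% rhamnose, with or without 25 μg/mL kanamycin, incubated overnight at 37°C or 30°C. The E. coli BL21(DE3) library had all eight P1ex-region intron nucleotides randomised, the intron placed in the knt kanamycin-resistance gene on pET-22b(+). DiMSum fitness is the error-weighted combination of replicate fold changes, kanamycin against none, normalised to wild type.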

Sequence | self-splicing fitness (ln) (30 °C) | self-splicing fitness (ln) (37 °C)
CAGCAGCAAUAUUACGGGCA | -2.11 ± 0.095 | -1.07 ± 0.099
ACUAAGCAAUAUUACGAGAC | -2.89 ± 0.28 | -3.24 ± 0.35
AGAGAGCAAUAUUACGGGGG | -2.78 ± 0.34 | -1.7 ± 0.36
GCUCAGCAAUAUUACGAGUU | -1.85 ± 0.079 | -0.858 ± 0.09
CUUGAGCAAUAUUACGUCAG | -1.6 ± 0.15 | -0.671 ± 0.17
UGCGAGCAAUAUUACGCCGU | -3.36 ± 0.23 | -2.54 ± 0.3
CGUAAGCAAUAUUACGCAUC |  | -2.03 ± 0.26
CGGCAGCAAUAUUACGAUAC | -3.21 ± 0.26 | -2.89 ± 0.31
AGGCAGCAAUAUUACGGCAG | -1.29 ± 0.1 | -0.578 ± 0.12
AGAUAGCAAUAUUACGGAAC |  | -0.911 ± 0.3
GGUCAGCAAUAUUACGGAAA | -1.22 ± 0.11 | -0.845 ± 0.11
GGGAAGCAAUAUUACGCGCU | -2.66 ± 0.28 | -0.954 ± 0.27
GCUCAGCAAUAUUACGGUUU | -0.112 ± 0.059 | 0.228 ± 0.073
GUCAAGCAAUAUUACGUUCC | -1.5 ± 0.11 | -0.728 ± 0.13
CACGAGCAAUAUUACGGCUG | -1.39 ± 0.089 | -0.237 ± 0.11
CAUUAGCAAUAUUACGACGU | -1.47 ± 0.12 | -0.0623 ± 0.14
UAGGAGCAAUAUUACGGAUU | -3.92 ± 0.25 | -2.98 ± 0.38
AAAAAGCAAUAUUACGGGGC | -3.33 ± 0.16 | -2.43 ± 0.18
ACAUAGCAAUAUUACGGGGC | -2.87 ± 0.12 | -1.81 ± 0.13
CCAGAGCAAUAUUACGGUCU | -4.02 ± 0.18 | -2.31 ± 0.23
CGUGAGCAAUAUUACGACAC | -2.5 ± 0.27 | 
CCCUAGCAAUAUUACGUAUU | -3.8 ± 0.17 | -2.92 ± 0.18
AGGAAGCAAUAUUACGCGCG | -0.598 ± 0.21 | -0.0648 ± 0.26
UGGCAGCAAUAUUACGCAAG | -3.83 ± 0.18 | -2.44 ± 0.18
GCGUAGCAAUAUUACGGUGU | -3.33 ± 0.21 | -1.48 ± 0.14

Sequence | self-splicing fitness (ln) (30 °C) | self-splicing fitness (ln) (37 °C)
GAGCAGCAAUAUUACGUGCG | -1.65 ± 0.12 | -1.25 ± 0.11
UAAAAGCAAUAUUACGGCUC | -1.05 ± 0.12 | 0.168 ± 0.17
UUGGAGCAAUAUUACGAGAU | -2.83 ± 0.29 | -2.36 ± 0.36
CUCAAGCAAUAUUACGUUUC | -4.05 ± 0.24 | -3.83 ± 0.37
UAUUAGCAAUAUUACGAGGG | -3.12 ± 0.3 | -2.13 ± 0.3
CUCGAGCAAUAUUACGCGGC | -3.35 ± 0.47 | -3.16 ± 0.4
GGCCAGCAAUAUUACGAAUC | -0.266 ± 0.11 | 0.822 ± 0.14
ACUCAGCAAUAUUACGUCUU | -0.765 ± 0.046 | 0.0108 ± 0.062
UAGAAGCAAUAUUACGUAUU | -2.3 ± 0.087 | -2.22 ± 0.12
CGUUAGCAAUAUUACGAUGG | -0.465 ± 0.094 | -0.125 ± 0.13
GGAAAGCAAUAUUACGGUUA | -1.33 ± 0.11 | -0.365 ± 0.099
CUCUAGCAAUAUUACGGUAA | -2.38 ± 0.24 | -2.14 ± 0.21
CUUCAGCAAUAUUACGUCGU | -4.07 ± 0.14 | -2.88 ± 0.12
GGUAAGCAAUAUUACGACAU | -0.0747 ± 0.013 | -0.0479 ± 0.033
ACACAGCAAUAUUACGACCA | -0.337 ± 0.085 | 0.147 ± 0.093
AAAGAGCAAUAUUACGUACC | -3.04 ± 0.19 | -2.03 ± 0.28
UGUAAGCAAUAUUACGUAGA | -0.696 ± 0.12 | -0.209 ± 0.16
ACAGAGCAAUAUUACGCACG | -3.11 ± 0.22 | -3.43 ± 0.25
UGCCAGCAAUAUUACGCUAU | -0.882 ± 0.16 | -1.13 ± 0.16
UCACAGCAAUAUUACGUUGA | -2.56 ± 0.11 | -2.1 ± 0.11
UGUCAGCAAUAUUACGCGCC | -0.7 ± 0.18 | -0.523 ± 0.23
UUUGAGCAAUAUUACGCGUG | -2.33 ± 0.14 | -0.742 ± 0.12
AAGGAGCAAUAUUACGCAAA | -3.1 ± 0.3 | -2.7 ± 0.32
CCUUAGCAAUAUUACGUUUA | -3.23 ± 0.26 | -2.21 ± 0.2
ACCGAGCAAUAUUACGAACC | -2.9 ± 0.39 | 

Sequence | self-splicing fitness (ln) (30 °C) | self-splicing fitness (ln) (37 °C)
AGUUAGCAAUAUUACGAGAU | -2.15 ± 0.18 | -1.17 ± 0.16
ACUUAGCAAUAUUACGUUGG | -1.67 ± 0.079 | -1.05 ± 0.11
CACCAGCAAUAUUACGCCAC | -3.58 ± 0.16 | -2.42 ± 0.17
CCCAAGCAAUAUUACGAGGG | -4.18 ± 0.17 | -2.53 ± 0.16
GUCAAGCAAUAUUACGGCUG | -4 ± 0.3 | 
CGCUAGCAAUAUUACGACCU | -1.72 ± 0.19 | -1.62 ± 0.18
AGCUAGCAAUAUUACGGGUG | -1.04 ± 0.068 | -0.416 ± 0.087
UGCCAGCAAUAUUACGAUAU | -4.12 ± 0.28 | -1.74 ± 0.16
ACCGAGCAAUAUUACGGAAG | -4.18 ± 0.34 | -1.93 ± 0.43
GCGCAGCAAUAUUACGGUUU | -0.323 ± 0.048 | -0.167 ± 0.057
CCGCAGCAAUAUUACGAACA | -2.19 ± 0.27 | 
CAUAAGCAAUAUUACGGUCC | -3.2 ± 0.25 | -2.28 ± 0.31
UGGUAGCAAUAUUACGGGAU | -3.14 ± 0.36 | -2.32 ± 0.28
AUAUAGCAAUAUUACGGGCC | -2.81 ± 0.3 | -2.86 ± 0.43
CGUCAGCAAUAUUACGGGCA | 0.0754 ± 0.085 | 0.572 ± 0.096
AGUCAGCAAUAUUACGACUG | -0.879 ± 0.055 | -0.421 ± 0.069
UAAUAGCAAUAUUACGCCGG | -1.23 ± 0.17 | -1.05 ± 0.33
AGCGAGCAAUAUUACGCUUG | -3.61 ± 0.15 | -1.69 ± 0.15
CUCCAGCAAUAUUACGCUCG | -3.69 ± 0.27 | -2.36 ± 0.39
CUCAAGCAAUAUUACGGCUG | -3.41 ± 0.26 | -2.57 ± 0.27
GGUUAGCAAUAUUACGACUC | -1.58 ± 0.17 | -0.677 ± 0.21
GCAAAGCAAUAUUACGGAGU | -3.58 ± 0.17 | -2.42 ± 0.21
GAUUAGCAAUAUUACGGGGU | -3.45 ± 0.18 | -2.11 ± 0.13
UUAAAGCAAUAUUACGGAGC | -3.99 ± 0.28 | -0.662 ± 0.23
GAAAAGCAAUAUUACGCGAG | -1.64 ± 0.058 | -0.497 ± 0.068

Sequence | self-splicing fitness (ln) (30 °C) | self-splicing fitness (ln) (37 °C)
AGAGAGCAAUAUUACGACCU | -1.59 ± 0.18 | -0.651 ± 0.26
UGCGAGCAAUAUUACGAUAA | -3.41 ± 0.23 | -2.01 ± 0.18
CUGCAGCAAUAUUACGUAGG | -0.76 ± 0.057 | -0.512 ± 0.07
AACCAGCAAUAUUACGCAGU | -2.6 ± 0.11 | -1.35 ± 0.11
CCACAGCAAUAUUACGACUG | -2.92 ± 0.11 | -0.694 ± 0.092
GUGCAGCAAUAUUACGAUUA | -1.38 ± 0.13 | -0.611 ± 0.12
AUGCAGCAAUAUUACGCCGC | -0.963 ± 0.28 | 
UGCUAGCAAUAUUACGGAGU | -4.11 ± 0.3 | -2.34 ± 0.24
CUCGAGCAAUAUUACGGACU | -2.35 ± 0.19 | -1.95 ± 0.26
GUCGAGCAAUAUUACGUAUG | -3.13 ± 0.32 | -0.147 ± 0.21
CGGCAGCAAUAUUACGCGUU | -4.11 ± 0.2 | -2.75 ± 0.18
AGAGAGCAAUAUUACGGAUG |  | -1.4 ± 0.36
CGCGAGCAAUAUUACGCGCC | -1.37 ± 0.28 | -1.66 ± 0.48
UUCCAGCAAUAUUACGUCGA | -0.549 ± 0.099 | 0.355 ± 0.11
UUACAGCAAUAUUACGGGCU | -3.86 ± 0.24 | -2.32 ± 0.18
CCGUAGCAAUAUUACGGGUA | -2.75 ± 0.32 | -2.67 ± 0.36
UUCCAGCAAUAUUACGGGCU | -4.67 ± 0.31 | -2.18 ± 0.17
UCAUAGCAAUAUUACGAUUG | -2.31 ± 0.13 | -1.38 ± 0.13
UGCGAGCAAUAUUACGCCGG | -3.39 ± 0.34 | 
CUUCAGCAAUAUUACGCGCC | -3.28 ± 0.3 | -1.92 ± 0.24
AAGCAGCAAUAUUACGGACA | -1.69 ± 0.16 | 0.0141 ± 0.11
ACGUAGCAAUAUUACGACAA | -0.894 ± 0.071 | -0.495 ± 0.084
ACCCAGCAAUAUUACGGACA | -0.0478 ± 0.08 | -0.181 ± 0.089
